From the domain aggregation screens of Martell et al. (2025)

Test: soluble fraction after stress (log2 fold change); higher = more stays soluble; pooled small domains, quantitative proteomics
Settings: stress: pH 4
Method in brief: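 Pooled custom libraries of small protein domains were subjected to pH 4 and measured by high-throughput quantitative proteomics. The log2 fold change in soluble amount per domain is reported, higher values meaning more remained soluble. This is used as a measure of aggregation propensity.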

In order of rising “soluble fraction (log2)” value:
1. HMLGFELVGIRGNNPESTIIILERDDYRLVEQGQNINSSVIFSHIDGSRAYFFDGQTYTFLDI  -2.77
2. HMLKDKLSDKDFDFYKNKIQIQLQGNPTELKELVRRFSSTEEQQILKTIDYMLDNGFLRIDEDNMIYWK  -1.8
3. HMLGITEGSLVRVIRSPNFGKIGTVAELPAELRMMESETMVRIAIVEIEGTNFEIPRSNLEVLET  -1.28
4. HMLDEKAVRQYLLNTLENSEIKMDRQAIDLFLRLTDLDLSKMMRELQKILLYGQEQEVITVKEIEQ  -1.17
5. HMLAVSVDKDGKVYIQDSETAVDAVTAKLRAISGNNSEIRIFVRGDADVNYGRIMEIMGVINAAGFRKVAL  -0.78
6. HMLAAAVVVYATDKVNVRAEASETADVIGQLEAGSQTTRLEDKDGWSRIDYSNGTQGYMKSEFLSTEAPT  -0.622
7. HMLIDQYPYSIIYRLIPHGRSNAVPAAQIVGLTKLDERSIRIYVEAMRREGHIIASSSKGYYFPASIEE  -0.589
8. HMLDEIAGQKVRVLEEINNSEGTGKVMYRGVEWMARSVDDAVMAKDSIVTVQSISGVKLMVT  -0.498
9. HMLDLVSIGKRIKAERQKNGLTQEALAERIEVSAHYVYELERGLKAMSVPILLRMSEVLHTSTDYLLF  -0.48
10. HMLIPADETEAKVLSVLSREPLHVDEIRNQAGLPIEKISATLALMELKGMVRQVGGMNYVSV  -0.48
11. HMLDGFEVGMTVMKKSGTEIGFTGWPSFADKDELPIIERIDTSDSTLLLKFKDMSWWIKASLVEPS  -0.396
12. HMLEQEQFESKLLKAINNINETQRIAFLMHRIDGKKYAEIASELNISVKAVEKRIHLALIELKKEIENF  -0.396
13. HMLERPLKLKSHYVSTIYEKVAVQYSEGEEKKSVMGTLIEVNQDTIVLDDRGTIIEIPFKSITRAKTVF  -0.364
14. HMLGKEVVRAYNISYAIDDKGSLQGDLTAALTGLIPLSKPPVLDQRNRSLYVTATPEQHKDVAALLAKL  -0.364
15. HMLADEPTGALDSKTSVQIMALLTEIAQDRLVIMVTHNPELADEYATRIVNLRDGVISDDSDPFNP  -0.289
16. HMLDLPEISARIMEVFETKDRATISELSKLTGTNINTIKKHLSSLVENNYLIKHGKTRGAWYTKST  -0.271
17. HMLIGLNETESLVLDALIANPMRIDQVSAMLKKDVATTLKFLGGLSVRGLVETLFGGRFAPTKIALHARS  -0.247
18. HMLEKVLDNHIHKLRLQHKISQQELADAIGVSRKTISTVETGRFTPSVVIALKIAAHFSVSVEQVFTL  -0.187
19. HMLEQISDINILSGYAKEVIAENPKTVSDYLSGKAAAFQALVGQVMKKTGGRGNPVIIQEILKRLIHKK  -0.182
20. HMLETLVYPNPTTDKILLSSPVDYHLFSLKGELVLEGRGSSIEVSQLSKGVYFLNTKTQTFKIIK  -0.156
21. HMLHQSLVVNAASGRVTVSLDIVPDEDNPYAVLRATDDSDEPLAQVRVAPSFKLNRASALAWIESQFARP  -0.128
22. HMLAEEAFNKQAATAGYVYRDGSYHPAASVAQYDAMPRNYRTNTMAQELSRSQVESQLQQSQ  -0.104
23. HMLGSGSKEQQLVILNNILERQVQAFNLQGGQEYPMVTLKNFYNTLSKMIENAGLKNVENYFVNPDVGKQM  -0.0872
24. HMLHMKAALGELMSIPGMRSELAGTLFDRGYTSLAQLRAATLDDLERVNGLERADARRIHDFLRKS  -0.066
25. HMLANLNKELQNDAALLKQKAQGNSNLLAKIQDVEQQMKQVNTSSASDEAKAKELQTLQRKLTAYKKALA  -0.0638
26. HMLALKSGQVVVGTIIRRLDNTTAMLRIGNQLFETSFAKGLPKSNHILLRYDAMQGNRFIFTMVE  -0.063
27. HMLGARSLNEAVARNLPQILAKYQLIHIAGKNGFNPELQGRGYVQYEYVDTELKDLMALADIVVSR  -0.0512
28. HMLIIMNSDATKEQVDHVTSRVREAGFKDHIMPGAGKVAIGVTGTGDYDQTKLHLEILPGVFKIMRITK  -0.0509
29. HMLHSEDATVVRQAIPLLERHVDAATVAVARRNLAQLEQFGRYPRRNQALGRISNPAENAYLRAER  -0.0503
30. HMLERKPVLVASRDLPALAVIGKDDLSVELLRTAPVGSYDRPEALLGKRVWVAVPAGSILSAATLEP  -0.0428
31. HMLDNHPQSKKIRALWLEMAAAGVVRDSSEQALALWVKRETGISALRWLSNEQASSVIEKLKKWQRRAAG  -0.0161
32. HMLEASVYTAEKSGDRLDAFLAEQAGITRSYAQKLIEGGQVTLGGVVPKKNYKLSAGEQVELILPEN  -0.00206
33. HMLGERIKQIRKQKKMTQTDVATGIITKSMLSMIENGKATPSLPALQAIARRLQVTVEELML  0.0227
34. HMLEPEVLDLIGQVKSVHHFSVTQSHQLEKLVRHAHTLGFEIAELKSLLASSPNAKSLLSSLDQKLEPLRM  0.0896
35. HMLAGKTYEVQTESGGKWTLVASYNVKSQAIQQAQALLESHKYSGVKVIAESDRKGEEVIFNEQSEVT  0.104
36. HMLDPKVFVGKAGINEGIAKLLLQAFDKADLVKVRFTAERDVMETQMQELARLTGSEVIGNVGRTATF  0.168
37. HMLEAMDSDEAAKVIEQIVNERADFVRSKGMGAIGPLMGPVMGALRGKVDGKQANELLTAAIKKLL  0.177
38. HMKYYIYQGVGASGELTKIAEVTDQKTYTVTGLQAKTTYRFAVSSYNGLRESTKSNIVTVTT  0.22
